Laboratory results: patent US20220324970A1 (Janssen / Centocor, published 2022)
Read-outs that look alike come from different tables or passages of the source.

Key:
[1] = biological target: T1, human pIgR, full-length, on cells (human, UniProt P01833 19-764); assay: cell-based or functional assay
[2] = biological target: T1, human pIgR, full-length, on cells; assay: cell-based or functional assay; remark: listed apart in the source
[3] = biological target: T1, human pIgR, full-length, on cells; assay: flow cytometry on MDCK-hpIgR cells
Description: Flow Cytometry was performed as follows. To test whether VHH-mono-Fc molecules recognize cell-surface hpIgR, Madin-Darby canine kidney (MDCK) cells engineered to express full-length hpIgR were used. Cells were cultured in Dulbecco's modified Eagle's medium containing 10% fetal calf serum at 37° C. with 5% CO₂. Cells were split into equal fractions (≈70,000 cells) and incubated with increasing concentrations of VHH-mono-Fc molecules for 30 min at 4 C. […] Cells were washed twice with cold staining buffer, resuspended in running buffer and analyzed with an iQue Screener (IntelliCyt Corporation). Binding was assessed by RL1 (A647) Geomeans from the live cell population and EC50 was calculated by fitting log VHH concentration versus MFI in Prism (Graphpad).

[4] = biological target: T2, human pIgR extracellular domain (ECD) (human, UniProt P01833 19-638); assay: BLI; summary table, repeats Table 1
T2 construct: also called hpIgR ECD
T2 sequence (P01833 other isoform, or with tags, fused parts or gaps): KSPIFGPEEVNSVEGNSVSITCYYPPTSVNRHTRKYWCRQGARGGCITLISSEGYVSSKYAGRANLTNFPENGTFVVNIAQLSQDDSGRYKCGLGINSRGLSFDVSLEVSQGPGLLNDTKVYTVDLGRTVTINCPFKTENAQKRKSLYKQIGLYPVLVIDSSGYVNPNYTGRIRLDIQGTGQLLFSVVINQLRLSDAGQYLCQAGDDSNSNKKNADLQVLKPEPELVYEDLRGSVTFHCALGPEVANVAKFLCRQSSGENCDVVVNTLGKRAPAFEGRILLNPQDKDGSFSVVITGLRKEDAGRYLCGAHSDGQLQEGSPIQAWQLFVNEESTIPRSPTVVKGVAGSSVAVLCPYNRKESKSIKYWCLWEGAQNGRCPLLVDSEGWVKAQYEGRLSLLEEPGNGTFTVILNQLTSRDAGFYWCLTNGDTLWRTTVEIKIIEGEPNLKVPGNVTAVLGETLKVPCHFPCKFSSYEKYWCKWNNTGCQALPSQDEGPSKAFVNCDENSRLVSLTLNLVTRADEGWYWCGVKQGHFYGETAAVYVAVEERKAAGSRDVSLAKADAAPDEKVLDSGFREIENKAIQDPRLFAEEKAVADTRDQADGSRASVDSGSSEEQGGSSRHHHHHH

[5] = biological target: T2, human pIgR extracellular domain (ECD); assay: BLI; summary table, repeats Table 1; remark: listed apart in the source
[6] = biological target: T2, human pIgR extracellular domain (ECD); assay: BLI (Octet), VHH-mono-Fc and hpIgR ectodomain
[7] = biological target: T2, human pIgR extracellular domain (ECD); assay: ECL (MSD), hpIgR-ECD coated, anti-Fc detection
Description: (§1) To check whether VHH recognizes a buried epitope on pIgR, EC₅₀ values were measured for VHH-mono-Fc molecules binding to hpIgR-ECD protein by electrochemiluminescence using two different detection antibodies, an anti-Fc antibody and an anti-VHH antibody. pIgR ECD (10 μg/ml in PBS) was coated on high-bind MSD plates for 2 hours at RT with 1000 rpm, incubated with blocking buffer for 1 hour at RT, incubated with VHH-mono-Fc molecules (increasing concentrations in PBS) for 2 hours at RT with 1000 rpm, washed 3× with PBT, incubated with ruthenylated secondary antibody (2 μg/ml in PBS) for 1 hour at RT with 1000 rpm, washed 3× with PBT and read plates in 40 ul reading buffer using the MSD imager. EC50 was calculated by fitting log VHH concentration versus log ECLU in Prism (Graphpad). The increase in EC₅₀ (>50-fold) due to anti-VHH detection was used as a measure to determine whether VHH recognized buried epitope on pIgR.

[8] = biological target: T2, human pIgR extracellular domain (ECD); assay: ECL (MSD), hpIgR-ECD coated, anti-VHH detection
Description: as §1

[9] = biological target: T2, human pIgR extracellular domain (ECD); assay: ECL (MSD), anti-VHH detection against anti-Fc detection
Description: as §1

[10] = biological target: T2, human pIgR extracellular domain (ECD); assay: BLI (Octet RED384), 1:1 fit, 25 C, PBS
[11] = biological target: T3, human pIgR extracellular domain 4-domain 5 (D4-D5) (human, UniProt P01833 350-565); assay: BLI (Octet RED384), 1:1 fit, 25 C, PBS
T3 construct: HIS-tagged construct made in HEK293 cells; also called hpIgR domains 4-5
T3 chain: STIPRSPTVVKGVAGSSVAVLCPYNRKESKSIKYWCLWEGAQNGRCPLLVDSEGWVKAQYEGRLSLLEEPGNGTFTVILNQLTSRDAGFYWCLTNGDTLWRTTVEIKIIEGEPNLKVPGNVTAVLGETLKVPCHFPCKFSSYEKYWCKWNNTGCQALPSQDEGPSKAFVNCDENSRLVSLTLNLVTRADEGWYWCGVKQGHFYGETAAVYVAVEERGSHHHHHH

[12] = biological target: T1, human pIgR, full-length, on cells; assay: flow cytometry on MDCK-hpIgR cells; summary table, repeats Table 1
[13] = biological target: T1, human pIgR, full-length, on cells; assay: as above; remark: listed apart in the source
[14] = biological target: T2, human pIgR extracellular domain (ECD); assay: BLI (Octet RED384), 1:1 fit, 25 C, PBS; column kdis
[15] = biological target: T3, human pIgR extracellular domain …; assay: as above
hpIgR_D3 = biological target: T4, hpIgR_D3; assay: ECL (MSD) heat map, HIS-tagged construct captured via anti-HIS, anti-human-Fc detection;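 also: VHH-mono-Fc molecules tested at 100 µg/ml for 2 h on captured His-tagged pIgR constructs (10 µg/ml), read-out as electrochemiluminescence units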
T4 construct: HIS-tagged construct from HEK293 cells; also called human pIgR extracellular domain 3 (D3); hD3
T4 HIS-tagged domain construct: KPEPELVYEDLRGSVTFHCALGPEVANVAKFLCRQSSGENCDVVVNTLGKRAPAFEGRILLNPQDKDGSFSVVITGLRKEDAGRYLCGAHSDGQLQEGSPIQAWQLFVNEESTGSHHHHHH

[16] = biological target: T5, human pIgR extracellular domain 2 (D2) (human, UniProt P01833 128-242); assay: as above
T5 construct: HIS-tagged construct made in HEK293 cells; also called hpIgR domain 2

hpIgR_D2-D3 = biological target: T6, hpIgR_D2-D3; assay: as above
T6 construct: HIS-tagged construct from HEK293 cells; also called human pIgR extracellular domain 2-domain 3 (D2-D3); hD2-D3
Description: (§2) The Electrochemiluminescence assay was performed as follows. A meso-scale discovery (MSD) platform was used for conducting epitope mapping and epitope burial studies. To test the binding of VHH-mono-Fc molecules to purified pIgR protein constructs, Streptavidin MSD plates were coated with a biotinylated anti-HIS antibody (2 μg/ml in PBS) for 1 hour at RT with 1000 rpm, washed 3× with PBT (PBS+0.1% Tween-20), incubated with blocking buffer for 1 hour at RT, incubated with His-tagged pIgR proteins (10 μg/ml in PBS) for 2 hours at RT with 1000 rpm, washed 3× with PBT, incubated with VHH-mono-Fc molecules (100 μg/ml in PBS) for 2 hours at RT with 1000 rpm, washed 3× with PBT, incubated with ruthenylated-anti-human-Fc antibody (2 μg/ml in PBS) for 1 hour at RT with 1000 rpm, washed 3× with PBT and read plates in 40 ul reading buffer using the MSD imager. ECLU values were plotted as a heatmap.
T6 HIS-tagged domain construct: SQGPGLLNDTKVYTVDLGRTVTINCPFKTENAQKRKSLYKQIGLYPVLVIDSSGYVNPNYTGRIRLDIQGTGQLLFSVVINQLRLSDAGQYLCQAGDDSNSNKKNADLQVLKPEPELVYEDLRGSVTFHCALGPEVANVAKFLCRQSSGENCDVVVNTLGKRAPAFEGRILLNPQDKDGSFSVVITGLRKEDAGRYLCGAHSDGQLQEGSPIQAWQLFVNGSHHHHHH

[17] = biological target: T7, human pIgR extracellular domain 5 (D5) (human, UniProt P01833 460-565); assay: as above
T7 construct: HIS-tagged construct made in HEK293 cells; also called hpIgR domain 5
Description: as §2

[18] = biological target: T1, human pIgR, full-length, on cells; assay: cell-based or functional assay; remark: listed apart in the source
[19] = biological target: T8, human pIgR extracellular domain 1 (D1) (human, UniProt P01833 19-127); assay: ECL (MSD) heat map, HIS-tagged construct captured via anti-HIS, anti-human-Fc detection;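 also: VHH-mono-Fc molecules tested at 100 µg/ml for 2 h on captured His-tagged pIgR constructs (10 µg/ml), read-out as electrochemiluminescence units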
T8 construct: HIS-tagged construct made in HEK293 cells; also called hpIgR domain-1
T8 sequence (P01833 other isoform, or with tags, fused parts or gaps limits assumed): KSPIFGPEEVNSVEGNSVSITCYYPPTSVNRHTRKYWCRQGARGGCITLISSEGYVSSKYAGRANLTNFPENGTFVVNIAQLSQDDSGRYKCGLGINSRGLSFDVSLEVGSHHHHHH

[20] = biological target: T9, human pIgR extracellular domain 1-domain 2 (D1-D2) (human, UniProt P01833 19-240); assay: as above
T9 construct: HIS-tagged construct made in HEK293 cells
T9 sequence (P01833 other isoform, or with tags, fused parts or gaps limits assumed): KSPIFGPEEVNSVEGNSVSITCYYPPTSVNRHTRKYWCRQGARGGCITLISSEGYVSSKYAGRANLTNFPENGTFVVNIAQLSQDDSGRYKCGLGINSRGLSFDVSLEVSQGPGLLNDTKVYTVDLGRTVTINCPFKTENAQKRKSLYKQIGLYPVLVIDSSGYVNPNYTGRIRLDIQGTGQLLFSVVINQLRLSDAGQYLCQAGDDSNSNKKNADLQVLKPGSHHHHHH
Description: as §2

[21] = biological target: T7, human pIgR extracellular domain 5 (D5); assay: as above; remark: listed apart in the source
[22] = biological target: T3, human pIgR extracellular domain …; assay: ECL (MSD) heat map in ECLU: HIS-tagged construct captured via anti-HIS, VHH-mono-Fc 100 ug/ml, anti-human-Fc detection
Description: as §2

T1 sequence (P01833 19-764): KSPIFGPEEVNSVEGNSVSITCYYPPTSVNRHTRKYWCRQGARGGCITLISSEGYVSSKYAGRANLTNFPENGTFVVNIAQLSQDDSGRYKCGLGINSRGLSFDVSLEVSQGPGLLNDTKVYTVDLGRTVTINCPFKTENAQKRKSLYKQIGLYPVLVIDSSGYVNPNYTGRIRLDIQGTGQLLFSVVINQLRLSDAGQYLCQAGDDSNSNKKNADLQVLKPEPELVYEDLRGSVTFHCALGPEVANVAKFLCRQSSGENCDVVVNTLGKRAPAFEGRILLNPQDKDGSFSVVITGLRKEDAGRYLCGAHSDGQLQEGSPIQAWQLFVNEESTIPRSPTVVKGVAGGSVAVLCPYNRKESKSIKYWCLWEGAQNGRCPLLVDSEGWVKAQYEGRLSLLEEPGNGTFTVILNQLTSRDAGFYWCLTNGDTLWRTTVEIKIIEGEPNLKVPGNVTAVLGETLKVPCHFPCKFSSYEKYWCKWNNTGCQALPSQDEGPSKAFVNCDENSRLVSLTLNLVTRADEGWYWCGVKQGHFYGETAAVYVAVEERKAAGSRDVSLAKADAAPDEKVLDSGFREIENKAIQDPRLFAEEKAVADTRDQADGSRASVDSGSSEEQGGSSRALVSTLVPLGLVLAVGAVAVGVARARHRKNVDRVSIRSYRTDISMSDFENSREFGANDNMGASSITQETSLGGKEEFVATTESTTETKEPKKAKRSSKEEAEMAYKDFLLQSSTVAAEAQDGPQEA

B1: VHH10-linker-mono-Fc protein (Fc fusion)
chain: EVQVVESGGGLVQAGGSLRLSCAASGFTFTRYAMGWFRQAPGKERSFVAAISWSGSSAGYGDSVKGRFTISRDNAKNTLYLQMNSLKPEDTAVYYCAADPFNQGYWGQGTQVTVSSEPKTPKPQPQPQLQPQPNPTTESKSPKSPAPELLGGPSVFLFPPKPKDTLMISRTPEVTCVVVDVSHEDPEVKFNWYVDGVEVHNAKTKPREEQYNSTYRVVSVLTVLHQDWLNGKEYKCKVSNKALPAPIEKTISKAKGQPREPQVYTKPPSREEMTKNQVSLSCLVKGFYPSDIAVEWESNGQPENNYKTTVPVLDSDGSFRLASYLTVDKSRWQQGNVFSCSVMHEALHNHYTQKSLSLSPGK
notes: made in CHO cells; also called VHH10-mono-Fc; hpIgR_225
Q: What does the source list for B1?
A: Transcytosis (Fold Incr.) [1]: 5 fold; For. Trans. (Fold Incr.) [2]: 1.3 fold; Rev. Trans (Fold Incr.) [2]: 3.4 fold; EC50 [3]: 20.4 nM; Kd [4]: 256 nM; Kd [5]: 256 nM; Kd [6]: 256 nM; EC50 [7]: 17.6 nM; EC50 [8]: 43.9 nM; Fold change in EC50 [9]: 2.5 fold; Kd [10]: 256 nM; kon [10]: 20000 M⁻¹ s⁻¹; Kd [11]: 115 nM; kon [11]: 16300 M⁻¹ s⁻¹; EC50 [12]: 20.4 nM; EC50 [13]: 20.4 nM; koff [14]: 0.00513 s⁻¹; koff [15]: 0.00188 s⁻¹; binding result (hpIgR_D3): no binding (tested: 100 ug/ml (single concentration)); binding result [16]: no binding (tested: 100 ug/ml (single concentration)); binding result (hpIgR_D2-D3): no binding (tested: 100 ug/ml (single concentration)); binding result [17]: no binding (tested: 100 ug/ml (single concentration))

B2: VHH11-linker-mono-Fc protein (Fc fusion)
chain: EVQVVESGGGLVQAGGSLRLSCAASGRTFTTYRMGWFRQAPGKEREFVAAIRWSGGRTLYADSVKGRFTISRDNAKNTAYLQMNNLRPEDTAVYYCAADLAEYSGTYSSPADSPAGYDYWGQGTQVTVSSEPKTPKPQPQPQLQPQPNPTTESKSPKSPAPELLGGPSVFLFPPKPKDTLMISRTPEVTCVVVDVSHEDPEVKFNWYVDGVEVHNAKTKPREEQYNSTYRVVSVLTVLHQDWLNGKEYKCKVSNKALPAPIEKTISKAKGQPREPQVYTKPPSREEMTKNQVSLSCLVKGFYPSDIAVEWESNGQPENNYKTTVPVLDSDGSFRLASYLTVDKSRWQQGNVFSCSVMHEALHNHYTQKSLSLSPGK
notes: made in CHO cells; also called VHH11-mono-Fc; hpIgR_250
Q: How did the “increase in their apical concentration relative to control VHH (MDCK-hpIgR monolayers)” value [18] turn out when B2 was run?
A: > 10 fold

Q: What about the “Transcytosis (Fold Incr.)” value [1] of the same binder?
A: 32 fold

Q: What about the “For. Trans. (Fold Incr.)” value [2] of the same binder?
A: 24.2 fold

Q: And the “Rev. Trans (Fold Incr.)” value [2]?
A: 10.3 fold

Q: What about the EC50 [3] of the same binder?
A: 1.5 nM

Q: And the Kd [4]?
A: 19 nM

Q: What about the Kd [5] of the same binder?
A: 19 nM

Q: And the Kd [6]?
A: 19 nM

Q: And the EC50 [7]?
A: 0.3 nM

Q: And the EC50 [8]?
A: 0.8 nM

Q: And the “Fold change in EC50” value [9]?
A: 3.2 fold

Q: And the Kd [10]?
A: 27.9 nM

Q: What about the kon [10] of the same binder?
A: 113000 M⁻¹ s⁻¹

Q: And the Kd [11]?
A: 15.2 nM

Q: What about the kon [11] of the same binder?
A: 184000 M⁻¹ s⁻¹

Q: And the EC50 [12]?
A: 1.5 nM

Q: What about the EC50 [13] of the same binder?
A: 1.5 nM

Q: And the koff [14]?
A: 0.00314 s⁻¹

Q: What about the koff [15] of the same binder?
A: 0.00281 s⁻¹

Q: Does B2 bind (hpIgR_D3)?
A: no binding (tested: 100 ug/ml (single concentration))

Q: Does B2 bind [19]?
A: no binding (tested: 100 ug/ml (single concentration))

Q: Does B2 bind [16]?
A: no binding (tested: 100 ug/ml (single concentration))

Q: Does B2 bind (hpIgR_D2-D3)?
A: no binding (tested: 100 ug/ml (single concentration))

Q: Does B2 bind [20]?
A: no binding (tested: 100 ug/ml (single concentration))

Q: Does B2 bind [17]?
A: no binding (tested: 100 ug/ml (single concentration))

B3: VHH7-linker-mono-Fc protein (Fc fusion)
chain: EVQVVESGGGLVQAGGSLRLACVASRSIGSINVMGWYRQAPGKQRDLVARITGGGSTHYAESVKGRFTISRDNAKNTVYLQMNSLEPEDTAVYYCASMVNPIITAWGTIGVREIPDYDYWGQGTQVTVSSEPKTPKPQPQPQLQPQPNPTTESKSPKSPAPELLGGPSVFLFPPKPKDTLMISRTPEVTCVVVDVSHEDPEVKFNWYVDGVEVHNAKTKPREEQYNSTYRVVSVLTVLHQDWLNGKEYKCKVSNKALPAPIEKTISKAKGQPREPQVYTKPPSREEMTKNQVSLSCLVKGFYPSDIAVEWESNGQPENNYKTTVPVLDSDGSFRLASYLTVDKSRWQQGNVFSCSVMHEALHNHYTQKSLSLSPGK
notes: made in CHO cells; also called VHH7-mono-Fc; hpIgR_198
Q: What does the source list for B3?
A: Transcytosis (Fold Incr.) [1]: 1.3 fold; For. Trans. (Fold Incr.) [2]: 1.9 fold; Rev. Trans (Fold Incr.) [2]: 3.3 fold; EC50 [3]: 36.4 nM; Kd [4]: 521 nM; Kd [5]: 521 nM; Kd [6]: 521 nM; EC50 [7]: 12.4 nM; EC50 [8]: 31.1 nM; Fold change in EC50 [9]: 2.5 fold; EC50 [12]: 36.4 nM; EC50 [13]: 36.4 nM; binding result (hpIgR_D3): no binding (tested: 100 ug/ml (single concentration)); binding result [19]: no binding (tested: 100 ug/ml (single concentration)); binding result [16]: no binding (tested: 100 ug/ml (single concentration)); binding result [21]: no binding (tested: 100 ug/ml (single concentration)); binding result (hpIgR_D2-D3): no binding (tested: 100 ug/ml (single concentration)); binding result [22]: binds
